Kd data for 3 molecules are collected here from publication PMC12011707.

Where a chain is given by its changes, count along the chain named.

B1: wildtype FGF10 (38-208) (ligand)
chain: QALGQDMVSPEATNSSSSSFSSPSSAGRHVRSYNHLQGDVRWRKLFSFTKYFLKIEKNGKVSGTKKENCPYSILEITSVEIGVVAVKAINSNYYLAMNKKGKLYGSKEFNNDCKLKERIEENGYNTYASFNWQHNGRQMYVALNGKGAPRRGQKTRRKNTSAHFLPMVVHS
B2: FGF10-STAB2 (ligand)
chain: B1 chain with W42I, K50G, K57P, N92G, Q133R, R150V
B3: FGF10-STAB3 (ligand)
chain: B1 chain with W42I, K50G, K57P, N92G, Q133R, R150E

This assay deals with human extracellular domain of FGFR2b fused with the Fc domain of IgG1 (human). In words: BLI; Octet K2; FGFR extracellular domain-Fc immobilised on a protein A biosensor; FGF10 variants in PBS, 31.25 to 250 nM (told for FGFR2b-Fc); association and dissociation 300 s each; KD from fitted saturation binding curves.
As for B1, the Kd was found to be 764 nM. B2 came in with an equilibrium dissociation constant (Kd) of 996 nM. As for B3, the dissociation constant (Kd) was 913 nM.
